According to patent US20230037815A1 (CULLINAN THERAPEUTICS, published 2023):
Numbering of substitutions follows the chain as printed.

T1: human CD19 (human, UniProt P15391 20-291, biotinylated in the Biacore assay of Table 11)
T1 construct: also called isolated CD19; Human CD19 Protein
T1 sequence (looked up): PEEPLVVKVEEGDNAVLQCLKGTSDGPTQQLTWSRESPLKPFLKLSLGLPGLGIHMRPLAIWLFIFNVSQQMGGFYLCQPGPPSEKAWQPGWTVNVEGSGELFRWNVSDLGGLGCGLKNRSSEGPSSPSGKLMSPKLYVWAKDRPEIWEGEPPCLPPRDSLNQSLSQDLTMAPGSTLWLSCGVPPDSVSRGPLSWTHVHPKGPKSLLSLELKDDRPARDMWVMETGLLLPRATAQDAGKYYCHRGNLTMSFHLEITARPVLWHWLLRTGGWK

T2: human CD19 on CHO cells (human, UniProt P15391 20-556)
T2 construct: whole, on cells; also called Cells Expressing Human CD19; CHO cells overexpressing the antigen
T2 sequence (looked up): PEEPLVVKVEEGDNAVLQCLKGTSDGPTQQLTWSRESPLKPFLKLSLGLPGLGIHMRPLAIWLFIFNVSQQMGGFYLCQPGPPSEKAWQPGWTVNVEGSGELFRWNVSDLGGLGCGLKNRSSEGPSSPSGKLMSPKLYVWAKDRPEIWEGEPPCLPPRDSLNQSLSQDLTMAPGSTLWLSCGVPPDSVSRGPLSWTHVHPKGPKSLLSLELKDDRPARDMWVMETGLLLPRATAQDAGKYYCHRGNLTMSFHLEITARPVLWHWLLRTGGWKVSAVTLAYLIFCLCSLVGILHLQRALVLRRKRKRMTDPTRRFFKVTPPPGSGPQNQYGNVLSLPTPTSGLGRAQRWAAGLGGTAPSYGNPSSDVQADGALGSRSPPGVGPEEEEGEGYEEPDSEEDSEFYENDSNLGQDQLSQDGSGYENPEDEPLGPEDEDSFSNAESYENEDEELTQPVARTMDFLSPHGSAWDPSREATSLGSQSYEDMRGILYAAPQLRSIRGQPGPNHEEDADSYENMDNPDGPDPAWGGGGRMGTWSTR

B1: CNG-CD19-705 (antibody, V domains shown)
VH: QVQLQESGPGLVKPSQTLSLTCTVSGGSISTSGMGVGWIRQHPGKGLEWIGHIWWDDDKRYNPALKSRVTISVDTSKNQFSLKLSSVTAADTAVYYCARMELWSYYFDYWGQGTLVTVSS
VL: EIVLTQSPATLSLSPGERATLSCSASSSVGYMHWYQQKPGQAPRLLIYDTSSLASGIPARFSGSGSGTDFTLTISSLEPEDFAVYYCFQGSVYPFTFGQGTKLEIK
notes: tested as IgG produced in yeast
B2: CNG-CD19-704 (antibody, V domains shown)
VH: QVQLQESGPGLVKPSQTLSLTCTVSGGSIASGMGVGWIRQHPGKGLEWIGHIWWDDDKRYNPALKSRVTISVDTSKNQFSLKLSSVTAADTAVYYCARMELWSYYFDGWGQGTLVTVSS
VL: B1 VL with G30S, S52K
notes: as for B1
B3: CNG-CD19-707 (antibody, V domains shown)
VH: B1 VH with G33T, H52F, A64N, I71M, Y109P
VL: B1 VL with S52K
notes: as for B1
B4: CNG-CD19-709 (antibody, V domains shown)
VH: B1 VH with G33T, H52F, A64N, I71M, Y109P
VL: B1 VL with S52K, S55F
notes: as for B1
B5: CNG-CD19-710 (antibody, V domains shown)
VH: B1 VH with G27V, G33S, I53A, Y109P
VL: B1 VL with V29F, G30S, S52K
notes: as for B1
B6: CNG-CD19-706 (antibody, V domains shown)
VH: B2 VH with G36S, G108P
VL: B1 VL with S52K
notes: as for B1
B7: CNG-CD19-708 (antibody, V domains shown)
VH: B1 VH with G33T, H52F, A64N, I71M, Y109P
VL: B1 VL with S52K, A54S
notes: as for B1
B8: CNG-HSA-117 (VHH)
VHH: KVQLVESGGGLVQPGNSLRLSCAASGFTFSSFGMSWVRQAPGKGLEWVSSISGSGSDTLYADSVKGRFTISRDNSKNTLYLQMNSLRAEDTAVYYCTIGGSLTRSSQGTLVTVSS
B9: CNG-HSA-118 (VHH)
VHH: B8 VHH with S54G, K65R, T103R, R104A
B10: CNG-HSA-101 (VHH)
VHH: B8 VHH with N16G, S35T, K65R, T103S, R104P
B11: CNG-HSA-107 (VHH)
VHH: B8 VHH with V5L, N16G, K65R, T97S, T103I
B12: CNG-HSA-104 (VHH)
VHH: B8 VHH with V5L, N16G, S30H, A88P, T103S
B13: CNG-HSA-119 (VHH)
VHH: B8 VHH with T58A, V64A, S75A, N77T, T103S, R104P
B14: CNG-HSA-114 (VHH)
VHH: B8 VHH with Y60T, T103V
B15: CNG-HSA-105 (VHH)
VHH: B8 VHH with K1E, V5L, N16G, T28V, A88P, T103S
B16: CNG-HSA-108 (VHH)
VHH: B8 VHH with N16G, S30G, S56A, T103R, R104A
B17: CNG-HSA-103 (VHH)
VHH: B8 VHH with N16G, S35T, K65R, A88P, T103S, R104P
B18: CNG-HSA-110 (VHH)
VHH: B8 VHH with S56G, V64A, A88P, T103S
B19: CNG-HSA-109 (VHH)
VHH: B8 VHH with S30G, L45P, A88P, T103S
B20: CNG-HSA-120 (VHH)
VHH: B8 VHH with N16G, L45P, A88P, T103K, R104Q
B21: CNG-HSA-115 (VHH)
VHH: B8 VHH with S35G, D62P, A88P, I98F, G99A, T103S

These binders were tested against T1, human CD19 (assay: Octet HTX (ForteBio), IgG on AHC sensor, 1:1 fit).
Description: The binding affinity of the antibodies to isolated CD19 was measured by […] using a ForteBio Octet HTX system as previously described (see, e.g., Estep et al, High throughput solution-based measurement of antibody-antigen affinity and epitope binning. Mabs 5(2), 270-278 (2013)). Briefly, ForteBio affinity measurements were performed by loading IgGs on-line onto anti-hIgG Fc Capture (AHC) sensors. The sensors were equilibrated off-line in assay buffer for 30 minutes and then monitored on-line for 60 seconds for baseline establishment. The sensors with loaded IgGs were exposed to 100 nM […] for 3 minutes, and subsequently transferred to assay buffer for 3 minutes for off-rate measurement. All kinetics were analyzed using the 1:1 binding model.

Binder	Kd	koff
B1	0.248 nM	4.7e-05 s⁻¹
B2	0.367 nM	0.000101 s⁻¹
B3	0.104 nM	4.66e-05 s⁻¹
B4	0.107 nM	4.6e-05 s⁻¹
B5	0.135 nM	4e-05 s⁻¹
B6	0.0859 nM	4e-05 s⁻¹
B7	0.156 nM	6.69e-05 s⁻¹

These binders were tested against T3, human serum albumin (human, UniProt P02768 25-609) (assay: Octet HTX (ForteBio), HCAb on AHC sensor, 1:1 fit).
T3 construct: also called HSA

Binder	Kd	koff
B8	5.56 nM	0.000793 s⁻¹
B9	9.36 nM	0.0013 s⁻¹
B10	5.07 nM	0.000716 s⁻¹
B11	16.8 nM	0.00238 s⁻¹
B12	7.71 nM	0.00112 s⁻¹
B13	7.36 nM	0.00109 s⁻¹
B14	14.7 nM	0.00221 s⁻¹
B15	15.2 nM	0.002 s⁻¹
B16	6.19 nM	0.000958 s⁻¹
B17	4.89 nM	0.000742 s⁻¹
B18	5.7 nM	0.000893 s⁻¹
B19	3.5 nM	0.000566 s⁻¹
B20	3.15 nM	0.000507 s⁻¹
B21	2.96 nM	0.000441 s⁻¹

The binders below were run against protein A (UniProt P38507 37-327) (assay: Octet HTX (ForteBio), HCAb on AHC sensor, 1:1 fit).

Binder	Kd	koff
B8	1.78 nM	0.0002 s⁻¹
B10	1.84 nM	0.0002 s⁻¹
B11	3.09 nM	0.000333 s⁻¹
B12	1.7 nM	0.0002 s⁻¹
B15	2.76 nM	0.000297 s⁻¹
B16	2.94 nM	0.000294 s⁻¹
B17	2.02 nM	0.000221 s⁻¹
B18	3.67 nM	0.000378 s⁻¹
B19	1.78 nM	0.0002 s⁻¹

What follows are binders tested against cynomolgus serum albumin (cynomolgus, UniProt A2V9Z4 25-608) (assay: Octet HTX (ForteBio), HCAb on AHC sensor, 1:1 fit).
Sequence of cynomolgus serum albumin (A2V9Z4 25-608 limits assumed): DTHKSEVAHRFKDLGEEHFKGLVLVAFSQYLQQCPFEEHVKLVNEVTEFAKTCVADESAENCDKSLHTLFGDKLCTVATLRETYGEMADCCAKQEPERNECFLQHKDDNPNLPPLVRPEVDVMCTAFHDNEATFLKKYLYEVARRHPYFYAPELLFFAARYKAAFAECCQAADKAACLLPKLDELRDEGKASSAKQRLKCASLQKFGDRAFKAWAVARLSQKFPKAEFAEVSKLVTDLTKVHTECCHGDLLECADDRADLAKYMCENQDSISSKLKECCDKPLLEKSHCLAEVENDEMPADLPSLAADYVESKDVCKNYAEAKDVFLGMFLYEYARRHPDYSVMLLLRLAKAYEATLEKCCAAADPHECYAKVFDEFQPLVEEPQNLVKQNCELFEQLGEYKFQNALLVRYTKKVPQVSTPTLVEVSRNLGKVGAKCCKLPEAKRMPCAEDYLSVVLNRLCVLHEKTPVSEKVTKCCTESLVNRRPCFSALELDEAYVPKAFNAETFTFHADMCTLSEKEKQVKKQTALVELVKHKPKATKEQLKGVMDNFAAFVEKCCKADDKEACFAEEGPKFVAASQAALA

Binder	Kd	koff
B8	4.05 nM	0.000608 s⁻¹
B9	6.65 nM	0.00102 s⁻¹
B10	3.58 nM	0.000532 s⁻¹
B11	13.3 nM	0.00182 s⁻¹
B12	6.1 nM	0.000874 s⁻¹
B13	5.73 nM	0.000864 s⁻¹
B14	12 nM	0.00173 s⁻¹
B15	12.7 nM	0.00163 s⁻¹
B16	5.27 nM	0.000794 s⁻¹
B17	3.62 nM	0.000541 s⁻¹
B18	5.2 nM	0.000759 s⁻¹
B19	3.1 nM	0.000503 s⁻¹
B20	2.6 nM	0.000422 s⁻¹
B21	3.37 nM	0.000618 s⁻¹

These binders were tested against T4, mouse serum albumin (mouse, UniProt P07724 25-608) (assay: Octet HTX (ForteBio), HCAb on AHC sensor, 1:1 fit).
T4 construct: also called MSA
T4 sequence (P07724 25-608 limits assumed): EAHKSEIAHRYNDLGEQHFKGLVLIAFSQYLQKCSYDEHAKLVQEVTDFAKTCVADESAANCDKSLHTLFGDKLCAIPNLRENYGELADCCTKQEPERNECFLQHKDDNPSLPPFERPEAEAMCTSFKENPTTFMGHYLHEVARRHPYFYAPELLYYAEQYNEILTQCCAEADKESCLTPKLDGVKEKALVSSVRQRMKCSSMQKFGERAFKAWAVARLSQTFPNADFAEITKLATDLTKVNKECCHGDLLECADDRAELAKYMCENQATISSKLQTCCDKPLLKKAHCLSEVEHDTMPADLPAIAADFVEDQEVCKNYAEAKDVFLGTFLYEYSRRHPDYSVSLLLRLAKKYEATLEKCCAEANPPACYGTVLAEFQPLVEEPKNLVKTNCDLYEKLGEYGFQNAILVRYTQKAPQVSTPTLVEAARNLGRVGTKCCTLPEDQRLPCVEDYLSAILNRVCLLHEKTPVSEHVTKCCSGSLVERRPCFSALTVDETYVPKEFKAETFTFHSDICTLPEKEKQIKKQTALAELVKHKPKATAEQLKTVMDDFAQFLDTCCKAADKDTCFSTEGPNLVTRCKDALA

Binder	Kd	koff
B8	44.8 nM	0.00877 s⁻¹
B9	12 nM	0.00274 s⁻¹
B10	16.1 nM	0.00341 s⁻¹
B11	45.6 nM	0.00851 s⁻¹
B12	50.6 nM	0.0105 s⁻¹
B13	41.1 nM	0.00854 s⁻¹
B14	17.5 nM	0.0038 s⁻¹
B15	154 nM	0.0206 s⁻¹
B16	8.06 nM	0.00185 s⁻¹
B17	15.1 nM	0.00324 s⁻¹
B18	38.9 nM	0.00838 s⁻¹
B19	11.9 nM	0.00284 s⁻¹
B20	4.32 nM	0.00107 s⁻¹
B21	6.43 nM	0.00132 s⁻¹

The binders below were run against T4, mouse serum albumin (assay: ratio of the Octet KD for mouse serum albumin to that for human serum albumin).

Binder	Ratio of MSA-KD to HSA-KD
B8	8.07
B9	1.28
B10	3.17
B11	2.72
B12	6.57
B13	5.59
B14	1.2
B15	10.1
B16	1.3
B17	3.09
B18	6.82
B19	3.4
B20	1.37
B21	2.17

Each binder was assayed against T2, human CD19 on CHO cells (assay: flow cytometry, CHO cells, 100 nM IgG).
Description: The binding affinity of the antibodies to CD19 expressed on the cell surface was also measured. Briefly, approximately 100,000 Chinese hamster overy (CHO) cells overexpressing the antigen were washed with wash buffer and incubated with 100 μl 100 nM IgG for 15 minutes at room temperature. Cells were then washed twice with wash buffer and incubated with 100 μl of 1:100 Human-PE for 15 minutes on ice. Cells were then washed twice more with wash buffer and analyzed on a FACS Canto II analyzer (BD Biosciences).

Binder	Binding to Cells Expressing Human CD19 (FOB)
B1	105 FOB
B2	140 FOB
B3	237 FOB
B4	234 FOB
B5	153 FOB
B6	241 FOB
B7	210 FOB
